Results on one substance are retold here after paper PMC3614025.

Values joined by “and” are separate entries in the source; they are usually repeats but may differ in a detail not shown here. Identical values can stand only once.

This test has as its target Chikungunya virus nuclear capsid protein (Chikungunya virus). Description: cryo-EM structure.

As a reminder, the stoichiometry N is a count of units in the complex or per binding partner.

As to “Chikungunya virus nuclear capsid protein (natural protein)”, the stoichiometry N was 5 and 6.
